Assay results as given in patent US20160158154A1 (GEORGIA TECH RESEARCH, published 2016).

B1: ZR-ELP (arginine-rich leucine zipper motif ZR fused with an elastin-like polypeptide) (other)
chain: MKGSLEIRAAALRRRNTALRTRVAELRQRVQRLRNEVSQYETRYGPLGGGGSGGGGSGVPGVGVPGVGVPGFGVPGVGVPGVGVPGVGVPGVGVPGFGVPGVGVPGVGVPGVGVPGVGVPGFGVPGVGVPGVGVPGVGVPGVGVPGFGVPGVGVPGVGVPGVGVPGVGVPGFGVPGVGVPGVGVPGC
notes: Forms ZR/ZR homodimers when no ZE partner is present

Columns and labels:
[1] = target: B1; assay: co-expression in E. coli
Source text: to prevent degradation during expression (Park W M, et al., Angew. Chem. Int. Ed., 52 (31), 8098-8101 (2013); Zhang K, et., Chem Bio Chem, 10 (16), 2617-2619 (2009)). Co-expressed ZR-ELP, i.e. the fusion peptide having an amino acid sequence of […](G₄S)₂G[(VPGVG)₂VPGFG(VPGVG)₂]₅VPGC (SEQ ID NO:27) and His₆ZE form a protein complex His₆ZE/ZR-ELP, which is resistant to proteolysis in the cytoplasm. All plasmids (pQE60-His₆ZE/ZR-ELP, pQE60-mCherry-ZE, and pQE60-EGFP-Z₅) were transformed into E. coli strain AFIQ-BL21 for expression. All cell cultures were grown at 37° C. in 2× yeast extract and tryptone (YT) media containing ampicillin (200 mg/L) and chloramphenicol (34 mg/L). When the cell culture optical density at 600 nm reached 0.8, protein expression was induced by 1.0 mM of isopropylβ-thiogalactoside (IPTG). Cells were harvested by centrifugation after 5 hours of expression at 37° C.

[2] = target: the molecule itself; assay: solution at 4 C; circular dichroism confirmed the coiled coil
Experimental: The CD spectra of protein complexes were recorded on a Jasco J-810 spectropolarimeter (JASCO). Protein solution samples were prepared in PBS (pH 7.4), and measurements were performed in a 0.2 cm-length cuvette. The spectra were obtained in 1 nm increments within a wavelength range of 200-300 nm. Mean residue ellipticity was measured from protein solutions containing 5 μM of protein complexes at 4° C. Mean residue ellipticity was converted from accumulated spectra of five measurements for each sample. The peak at a wavelength of 222 nm indicated presence of α-helical coiled-coils of ZR/ZR and ZE/ZR.

Binder | binding result [1] | binding result [2]
His6-tagged ZE (It was co-expressed with ZR-ELP; also called His6ZE; His6-ZE) peptide: LEIEAAALEQENTALETEVAELEQEVQRLENIVSQYRTRYGPLRSHHHHHH | binds | 
B1 |  | binds
